Legend:
[1] = target: T1, Fc-tagged SARS-CoV-2 receptor-binding domain (RBD), wild type (SARS-CoV-2, Wuhan-Hu-1 (QHD43416.1), UniProt P0DTC2); assay: BLI; Fc-tagged RBD (20 ug/ml) loaded on anti-hIgG Fc Capture (AHC) biosensors, Fab in solution at four to five concentrations; Octet Red96e, room temperature, 1x kinetics buffer (1x PBS pH 7.4, 0.01% w/v BSA, 0.002% v/v Tween 20); 1:1 binding model; conditions: both partners purified
T1 construct: also called SARS-CoV-2 RBD; WT RBD; not shown: Fc, C-terminal, kept

[2] = target: T2, Fc-tagged SARS-CoV-2 spike receptor-binding domain (RBD) (SARS-CoV-2, Wuhan-Hu-1 (QHD43416.1), UniProt P0DTC2); assay: BLI; Fc-tagged RBD (20 ug/ml) loaded on anti-hIgG Fc Capture (AHC) biosensors, Fab in solution; room temperature; 1x PBS pH 7.4, 0.01% BSA, 0.002% Tween 20; 1:1 binding model; conditions: both partners purified
T2 construct: also called SARS-CoV-2 RBD; Fc-tagged RBD; source: Expi293F, transiently transfected, purified (KanCapA protein A resin); not shown: Fc (after an SSSSG linker), C-terminal, kept

Row | Binder | Kd [1] [nM] | Kd [2] [nM]
1 | COV107-23 F58Y Fab (Fab, V domains shown) VH: EVQLVESGGGLIQPGGSLRLSCAASGFTVSSNYMSWVRQAPGKGLEWVSVIYSGGSTYYADSVKGRFTISRDNSKNTLYLQMNSLRAEDTAVYYCARDLGTGLFDYWGQGTLVTVSS VL: DIQLTQSPSFLSASVGDRVTITCRASQGISSYLAWYQQKPGKAPKLLIYAASTLQSGVPSRFSGSGSGTEFTLTISSLQPEDFATYYCQQLDSYPPGTFGPGTKVDIK | 362 ± 18 | 
2 | CC12.3 F58Y Fab (Fab, V domains shown) VH: QVQLVESGGGLIQPGGSLRLSCAASGFTVSSNYMSWVRQAPGKGLEWVSVIYSGGSTYYADSVKGRFTISRDNSKSTLYLQMNSLRVEDTAVYYCARDFGDFYFDYWGQGTLVTVSS VL: not shown | 97 ± 2 | 
3 | CC12.3 Fab, Y58 variant (heavy chain F58Y) (Fab, V domains shown, also called CC12.3 Y58) VH: QVQLVESGGGLIQPGGSLRLSCAASGFTVSSNYMSWVRQAPGKGLEWVSVIYSGGSTYYADSVKGRFTISRDNSKSTLYLQMNSLRVEDTAVYYCARDFGDFYFDYWGQGTLVTVSS VL: not shown |  | 97
4 | COVA2-20 Y58F Fab (Fab, V domains shown) VH: EVQLVESGGGLIQPGGSLRLSCAASGFTVSSNYMSWVRQAPGKGLEWVSVIYSGGSTFYADSVKGRFTISRDNSKNTLYLQMNSLRAEDTAVYYCASPLLLTPPDYYYYMDVWGKGTMVTVSS VL: DVVMTQSPSSLSVSVGDRVTITCRASQGIRNDLGWYQQKPGKAPKRLIYAASSLQSGVPSRFSGSGSGTEFTLTISSLQPEDFATYYCLQHNSYLWTFGQGTKLEIK | 286 ± 17 | 
5 | COVA2-20 Fab, F58 variant (heavy chain Y58F) (Fab, V domains shown, also called COVA2-20 F58) VH: EVQLVESGGGLIQPGGSLRLSCAASGFTVSSNYMSWVRQAPGKGLEWVSVIYSGGSTFYADSVKGRFTISRDNSKNTLYLQMNSLRAEDTAVYYCASPLLLTPPDYYYYMDVWGKGTMVTVSS VL: DVVMTQSPSSLSVSVGDRVTITCRASQGIRNDLGWYQQKPGKAPKRLIYAASSLQSGVPSRFSGSGSGTEFTLTISSLQPEDFATYYCLQHNSYLWTFGQGTKLEIK |  | 286

Reference: article PMC8217500, “Sequence signatures of two public antibody clonotypes that bind SARS-CoV-2 receptor binding domain” (Nature Communications, 2021)
